Data reported in PMC12507091, “The CsWRKY50-CsREM1-CsTSⅠ module inhibits theanine biosynthesis in tea plants under drought stress”.

Legend:
CsREM1-GST = biological target: T1, CsREM1-GST (Camellia sinensis); assay: EMSA; not stated (EMSA protocol per Zhu et al. 2024); details: protein: recombinant; tags: GST (pGEX-4T, N-terminal by vector); blunt
T1 chain: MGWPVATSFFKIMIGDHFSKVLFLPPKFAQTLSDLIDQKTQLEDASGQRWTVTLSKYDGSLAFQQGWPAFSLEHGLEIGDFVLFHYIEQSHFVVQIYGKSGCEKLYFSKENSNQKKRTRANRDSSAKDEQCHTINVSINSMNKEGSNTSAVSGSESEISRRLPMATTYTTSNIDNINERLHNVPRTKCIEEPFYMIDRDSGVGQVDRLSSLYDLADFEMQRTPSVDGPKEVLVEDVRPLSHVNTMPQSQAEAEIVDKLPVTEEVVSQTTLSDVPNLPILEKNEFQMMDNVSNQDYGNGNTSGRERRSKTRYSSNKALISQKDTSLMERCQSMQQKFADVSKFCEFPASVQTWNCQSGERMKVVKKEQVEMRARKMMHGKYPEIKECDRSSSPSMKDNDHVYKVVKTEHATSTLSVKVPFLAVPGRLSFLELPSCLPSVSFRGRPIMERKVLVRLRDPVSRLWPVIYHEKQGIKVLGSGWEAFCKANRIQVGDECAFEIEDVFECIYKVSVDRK

CsWRKY50-GST = CsWRKY50-GST (Camellia sinensis); assay: as above; details: protein: recombinant; tags: GST (pGEX-4T, N-terminal by vector); blunt
Chain of CsWRKY50-GST (Camellia sinensis) (chain, as listed by the source): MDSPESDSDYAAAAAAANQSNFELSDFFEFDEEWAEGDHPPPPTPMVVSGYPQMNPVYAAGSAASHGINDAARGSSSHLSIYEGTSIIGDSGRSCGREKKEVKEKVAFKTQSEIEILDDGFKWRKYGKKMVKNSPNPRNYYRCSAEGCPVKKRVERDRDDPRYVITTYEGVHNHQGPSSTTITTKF

B1: CsTSI promoter Probe-2 (dsDNA)
DNA 1: TTACAACATGCTACACAGACTCGTAAA
DNA 2: TTTACGAGTCTGTGTAGCATGTTGTAA
B1: binds (CsREM1-GST).

B2: CsREM1 promoter Probe (dsDNA)
DNA 1: TTTTGTCTATGTTTTGACTTACTAATAATT
DNA 2: AATTATTAGTAAGTCAAAACATAGACAAAA
B2: binds (CsWRKY50-GST).

B3: CsTSI promoter Probe-1 (dsDNA)
DNA 1: TATGTAATTTTATGTAGAGTTATACAT
DNA 2: ATGTATAACTCTACATAAAATTACATA
B3: binds (CsREM1-GST).
